Positions count from the first letter of the chain named. Names and notes keep the numbering of the source.
Test system: tet operator sequence
Test: β-galactosidase activity of a tetracycline-regulated promoter in transformed E. coli with revTetR, in the presence and absence of anhydrotetracycline (atc)
Type: cell-based, Escherichia coli
Details: for β-Galactosidase Activity, Cultured Without ATC: RevTetR isolate cultured in the absence of anhydrotetracycline (ATC); for β-Galactosidase Activity, Cultured With ATC: RevTetR isolate cultured in the presence of anhydrotetracycline (ATC)
Description: The relative activity of revTetR repressors was determined at 28° C. and 37° C. for each clone by measuring β-galactosidase activity of a tetracycline-regulated promoter in transformed Escherichia coli in the presence and absence of the tetracycline analog, anhydrotetracycline (atc). The relative β-galactosidase activity was measured in standard Miller units and is presented as the percent of maximal expression as measured in the absence of Tet repressor. […] With respect to each mutant, as well as the wild-type controls, FIG. 2 provides two horizontal bars; the upper horizontal bar represents the level of β-galactosidase activity in the absence of anhydrotetracycline (−atc) while the lower horizontal bar represents the level of β-galactosidase activity in the presence of anhydrotetracycline (+atc).
The pool of mutated Tet repressors was cloned into plasmid pWH1411 (Baumeister et al., 1992, Proteins: Struct. Funct. Genet. 14: 168-77), which carries a TetR(B) gene, to provide a TetR(BD) chimera that included, as the amino-terminal portion, amino acid residues 1 to 50 of the TetR(B) gene and, as the carboxyl-terminal portion, amino acid residues 51 to 208 of the TetR(D) gene. The resulting plasmid pool was screened in a genetic assay which positively selects for a functional interaction between a Tet repressor and its cognate operator using E. coli strain WH207(λWH25) (the construction of this strain is described in detail in Wissmann et al., (1991) Genetics 128: 225-32). In this E. coli strain, tet operators direct the expression of divergently arranged β-galactosidase (lacZ) and Lac repressor (lacI) genes and the lac regulatory region directs the expression of a galactokinase (galK) gene on plasmid pWH414. Binding of Tet repressors to tet operators turns off transcription of the lacI and lacZ genes. The absence of Lac repressor allows for expression of the galK gene, which enables the E. coli strain to use galactose as a sole carbon source, which serves as one marker. The lacZ^− phenotype serves as a second marker. Thus, bacteria containing Tet repressors which bind to tet operators, have a Gal^+, lacZ^− phenotype. Bacteria containing wild-type Tet repressors have a Gal^+, lacZ^− phenotype in the absence of tetracycline. Modified “reverse” Tet repressors (revTetR) were selected based upon a Gal^+, lacZ^− phenotype in the presence of tetracycline.
The ability of each revTetR clone to bind to its cognate tet operator sequence and regulate transcription in a prokaryotic organism, Escherichia coli, in the presence and absence of a tetracycline analog (anhydrotetracycline, atc) was determined (Table 3, FIG. 2). The relative ratios of non-repressed to repressed levels of transcription for the 15 clones range from about 1.4-fold to about 50-fold at 28° C. and from about 1.3-fold to 40-fold at 37° C. For example, clone 4b comprising an amino acid substitution of glutamic acid for glycine at position 96 (e.g., SEQ ID NO. 24) repressed transcription 19-fold at 37° C. but to a less extent at 28° C. (5.7-fold, Table 3). Furthermore, clones 14, 5a and 7 comprising the arginine for glycine substitution at position 96 and further comprising a substitution or substitutions of serine for threonine at position 103 and valine for glutamic acid at position 114; leucine for proline at position 159; or glutamine to histidine at position 188, respectively, have pronouncedly different activities.
wherein each underlined base was present in approximately 85% of the oligonucleotides, while the remaining approximately 15% of the oligonucleotides contained one of the other three, non-wild type bases at that position. Similar mutagenic, partially randomized oligonucleotides were prepared for mutagenesis of the coding regions for amino acids 14-25 and 93-102. It was predicted that, according to a binomial distribution, each oligonucleotide would contain three to four mutations. […]

B1: TetRrevAD3/10: revTetR(BD) N18Y G24G L51L D53Y A54V (protein)
chain: MSRLDKSKVINSALELLYEVGIEGLTTRKLAQKLGVEQPTLYWHVKNKRALLYVLAVEILARHHDYSLPAAGESWQSFLRNNAMSFRRALLRYRDGAKVHLGTRPDEKQYDTVETQLRFMTENGFSLRDGLYAISAVSHFTLGAVLEQQEHTAALTDRPAAPDENLPPLLREALQIMDSDDGEQAFLHGLESLIRGFEVQLTALLQIV
modifications: Modified tetracycline repressor
notes: revTetR(BD) N18Y G24G L51L D53Y A54V
  β-Galactosidase Activity, Cultured Without ATC: 89.1669
  β-Galactosidase Activity, Cultured With ATC: 3.5004

B2: TetRrevAF4/6: revTetR(BD) E15D L17I N18T E23G A54V D95A (protein)
chain: B1 chain with E15D, L17I, Y18T, E23G, Y53D, D95A
modifications: Modified tetracycline repressor
notes: revTetR(BD) E15D L17I N18T E23G A54V D95A
  β-Galactosidase Activity, Cultured Without ATC: 100.702
  β-Galactosidase Activity, Cultured With ATC: 3.7257

B3: TetRrevAF3/6: revTetR(BD) E23K D95H L101H (protein)
chain: B1 chain with Y18N, E23K, Y53D, V54A, D95H, L101H
modifications: Modified tetracycline repressor
notes: revTetR(BD) E23K D95H L101H
  β-Galactosidase Activity, Cultured Without ATC: 77.2272
  β-Galactosidase Activity, Cultured With ATC: 1.0546

B4: TetRrevAF4/5: revTetR(BD) E15G L16L D95A V99G (protein)
chain: B1 chain with E15G, Y18N, Y53D, V54A, D95A, V99G
modifications: Modified tetracycline repressor
notes: revTetR(BD) E15G L16L D95A V99G
  β-Galactosidase Activity, Cultured Without ATC: 105.33
  β-Galactosidase Activity, Cultured With ATC: 0.9927

B5: TetRrevAtc4-13: revTetR(BD) E58N I59T L60F H63Y (protein)
chain: B1 chain with Y18N, Y53D, V54A, E58N, I59T, L60F, H63Y
modifications: Modified tetracycline repressor
notes: revTetR(BD) E58N I59T L60F H63Y
  β-Galactosidase Activity, Cultured Without ATC: 98.8175
  β-Galactosidase Activity, Cultured With ATC: 8.1397

B6: TetRrevAF5/1: revTetR(BD) L14F D95A V99G (protein)
chain: B1 chain with L14F, Y18N, Y53D, V54A, D95A, V99G
modifications: Modified tetracycline repressor
notes: revTetR(BD) L14F D95A V99G
  β-Galactosidase Activity, Cultured Without ATC: 100.053
  β-Galactosidase Activity, Cultured With ATC: 1.072

B7: TetRrevAF3/8: revTetR(BD) E15V L16L N18H E19D V20D R94P D95H H100N (protein)
chain: B1 chain with E15V, Y18H, E19D, V20D, Y53D, V54A, R94P, D95H, H100N
modifications: Modified tetracycline repressor
notes: revTetR(BD) E15V L16L N18H E19D V20D R94P D95H H100N
  β-Galactosidase Activity, Cultured Without ATC: 95.5476
  β-Galactosidase Activity, Cultured With ATC: 2.7257

B8: TetRrevAF6/1: revTetR(BD) A13A E19V V20A D95I G96G (protein)
chain: B1 chain with Y18N, E19V, V20A, Y53D, V54A, D95I
modifications: Modified tetracycline repressor
notes: revTetR(BD) A13A E19V V20A D95I G96G
  β-Galactosidase Activity, Cultured Without ATC: 72.8186
  β-Galactosidase Activity, Cultured With ATC: 3.7966

B9: TetRrevAF4/4: revTetR(BD) G24A R94P D95E G102D (protein)
chain: B1 chain with Y18N, G24A, Y53D, V54A, R94P, D95E, G102D
modifications: Modified tetracycline repressor
notes: revTetR(BD) G24A R94P D95E G102D
  β-Galactosidase Activity, Cultured Without ATC: 94.4528
  β-Galactosidase Activity, Cultured With ATC: 3.8273

B10: TetRrevAF5/5: revTetR(BD) L14V L17F V20A I22M L25F D95H (protein)
chain: B1 chain with L14V, L17F, Y18N, V20A, I22M, L25F, Y53D, V54A, D95H
modifications: Modified tetracycline repressor
notes: revTetR(BD) L14V L17F V20A I22M L25F D95H
  β-Galactosidase Activity, Cultured Without ATC: 100.546
  β-Galactosidase Activity, Cultured With ATC: 1.6948

B11: TetRrevAtc4-14: revTetR(BD) L51L D53Q V57V E58K L60L A61V R62P H63D (protein)
chain: B1 chain with Y18N, Y53Q, V54A, E58K, A61V, R62P, H63D
modifications: Modified tetracycline repressor
notes: revTetR(BD) L51L D53Q V57V E58K L60L A61V R62P H63D
  β-Galactosidase Activity, Cultured Without ATC: 62.985
  β-Galactosidase Activity, Cultured With ATC: 25.025

B12: TetRrevAD2/1: revTetR(BD) G21G L51L D53Y L55L A56P A61E (protein)
chain: B1 chain with Y18N, E19G, V54A, A56P, A61E
modifications: Modified tetracycline repressor
notes: revTetR(BD) G21G L51L D53Y L55L A56P A61E
  β-Galactosidase Activity, Cultured Without ATC: 34.2242
  β-Galactosidase Activity, Cultured With ATC: 1.17

B13: TetRrevAF5/13: revTetR(BD) L14L V20G V99E (protein)
chain: B1 chain with Y18N, V20G, Y53D, V54A, V99E
modifications: Modified tetracycline repressor
notes: revTetR(BD) L14L V20G V99E
  β-Galactosidase Activity, Cultured Without ATC: 105.942
  β-Galactosidase Activity, Cultured With ATC: 4.4642

B14: TetRrev96/99-1: revTetR(BD) G96H V99R (protein)
chain: B1 chain with Y18N, Y53D, V54A, G96H, V99R
modifications: Modified tetracycline repressor
notes: revTetR(BD) G96H V99R
  β-Galactosidase Activity, Cultured Without ATC: 58.4545
  β-Galactosidase Activity, Cultured With ATC: 25.484

B15: TetRrevAD2/5: revTetR(BD) L17F L55L L60F R62V (protein)
chain: B1 chain with L17F, Y18N, Y53D, V54A, L60F, R62V
modifications: Modified tetracycline repressor
notes: revTetR(BD) L17F L55L L60F R62V
  β-Galactosidase Activity, Cultured Without ATC: 50.466
  β-Galactosidase Activity, Cultured With ATC: 1.4141

B16: TetRrevAD2/8: revTetR(BD) V20G D53N A54A A56G V57L I59F L60L R62R (protein)
chain: B1 chain with Y18N, V20G, Y53N, V54A, A56G, V57L, I59F, L60F
modifications: Modified tetracycline repressor
notes: revTetR(BD) V20G D53N A54A A56G V57L I59F L60L R62R
  β-Galactosidase Activity, Cultured Without ATC: 73.8584
  β-Galactosidase Activity, Cultured With ATC: 1.8468

B17: TetRrevAF4/13: revTetR(BD) A13A E15D L17L E19V I22I E23K R94H G95N (protein)
chain: B1 chain with E15D, Y18N, E19V, E23K, Y53D, V54A, R94H, D95N
modifications: Modified tetracycline repressor
notes: revTetR(BD) A13A E15D L17L E19V I22I E23K R94H G95N
  β-Galactosidase Activity, Cultured Without ATC: 98.8886
  β-Galactosidase Activity, Cultured With ATC: 2.5827

B18: TetRrevAF5/3: revTetR(BD) E15G N18K R94H G96G G102V (protein)
chain: B1 chain with E15G, Y18K, Y53D, V54A, R94H, G102V
modifications: Modified tetracycline repressor
notes: revTetR(BD) E15G N18K R94H G96G G102V
  β-Galactosidase Activity, Cultured Without ATC: 58.5651
  β-Galactosidase Activity, Cultured With ATC: 1.8337

B19: TetRrevAF6/5: revTetR(BD) V20V I22V E23D D95N H100P (protein)
chain: B1 chain with Y18N, I22V, E23D, Y53D, V54A, D95N, H100P
modifications: Modified tetracycline repressor
notes: revTetR(BD) V20V I22V E23D D95N H100P
  β-Galactosidase Activity, Cultured Without ATC: 102.848
  β-Galactosidase Activity, Cultured With ATC: 2.8572

B20: TetRrevAF4/9: revTetR(BD) L16R E19D E23D D95G V99A G102G (protein)
chain: B1 chain with L16R, Y18N, E19D, E23D, Y53D, V54A, D95G, V99A
modifications: Modified tetracycline repressor
notes: revTetR(BD) L16R E19D E23D D95G V99A G102G
  β-Galactosidase Activity, Cultured Without ATC: 110.616
  β-Galactosidase Activity, Cultured With ATC: 1.3761

— patent US20030186281A1, “Modified tetracycline repressor protein compositions and methods of use” (priority 2001, published 2003)
